{
  "source": "patent US20130344582",
  "system": "collagen IV (BD Biosciences)",
  "data": [
    {"substance": "activated MMP-9 (Chemicon)", "values": [
      {"measurement": "alignment of liquid crystal on the surface (zymography; enzymatic digestion of the protein substrate)", "value": "after 30 minutes incubation with 1 pg MMP-9, the collagen IV has been digested and the liquid crystals align on the exposed SAM"}
    ]}
  ]
}
